The chains are these.
B1: WT-Sx4-GST (C-terminally GST-tagged Syntaxin 4 cytosolic domain) [not stated] / His-SNAP23 (N-terminally His-tagged SNAP23) [not stated] (parent)
chain 1: MRDRTHELRQGDNISDDEDEVRVALVVHSGAARLGSPDDEFFQKVQTIRQTMAKLESKVRELEKQQVTILATPLPEESMKQGLQNLREEIKQLGREVRAQLKAIEPQKEEADENYNSVNTRMKKTQHGVLSQQFVELINKCNSMQSEYREKNVERIRRQLKITNAGMVSDEELEQMLDSGQSEVFVSNILKDTQVTRQALNEISARHSEIQQLERSIRELHEIFTFLATEVEMQGEMINRIEKNILSSADYVERGQEHVKIALENQKKARKKKV
chain 2: MDNLSPEEVQLRAHQVTDESLESTRRILGLAIESQDAGIKTITMLDEQGEQLNRIEEGMDQINKDMREAEKTLTELNKCCGLCICPCNRTKNFESGKNYKATWGDGGDNSPSNVVSKQPSRITNGQPQQTTGAASGGYIKRITNDAREDEMEENLTQVGSILGNLKNMALDMGNEIDAQNQQIQKITEKADTNKNRIDIANTRAKKLIDS

These results are taken from publication PMC10741561.

Variants of B1 are the subject of one assay. In words: GST pull-down (glutathione sepharose), immunoblot, ImageJ quantification. As to conditions: with His-SNAP23 (N-terminally His-tagged SNAP23); 30 min; 1–5 μg Sx4-GST variant on beads, excess His-SNAP23, 4 °C; read off a plot.
For the variant chain 1 MRDRTHELRQGDNISDDEDEVRVALVVHSGAARLGSPDDEFFQKVQTIRQTMAKLESKVRELEKQQVTILATPLPEESMKQGLQNLREEIKQLGREVRAQLKAIEPQKEEADENYNSVNTRMKKTQHGVLSQQFVELINKCNSMQSEYREKNVERIRRQLKITNAGMVSDEEAAQMLDSGQSEVFVSNILKDTQVTRQALNEISARHSEIQQLERSIRELHEIFTFLATEVEMQGEMINRIEKNILSSADYVERGQEHVKIALENQKKARKKKV [chain 1 L173A E174A], the response (relative amount bound) was 0.77.

The assay is the same for the next values; noted with them: with His-SNAP23 (N-terminally His-tagged SNAP23); 60 min; 1–5 μg Sx4-GST variant on beads, excess His-SNAP23, 4 °C; read off a plot.
Regarding chain 1 MRDRTHELRQGDNISDDEDEVRVALVVHSGAARLGSPDDEFFQKVQTIRQTMAKLESKVRELEKQQVTILATPLPEESMKQGLQNLREEIKQLGREVRAQLKAIEPQKEEADENYNSVNTRMKKTQHGVLSQQFVELINKCNSMQSEYREKNVERIRRQLKITNAGMVSDEEAAQMLDSGQSEVFVSNILKDTQVTRQALNEISARHSEIQQLERSIRELHEIFTFLATEVEMQGEMINRIEKNILSSADYVERGQEHVKIALENQKKARKKKV [chain 1 L173A E174A], the response (relative amount bound) amounted to 1.7.
